For orientation: Kd means a measure of binding affinity in units of concentration. Read a high Kd as a looser complex.

The values that follow come from article PMC4610412.

In test [1] the target is pCdc25C (Homo sapiens). Kind of test: NMR titration. The following applies: phospho-T5 of peptide (pT48).
A further test concerns the target trans-locked inhibitor. Kind of test: NMR titration. Conditions: phospho-S3, trans-locked alkene isostere.
Another test has as its target FFpSPR. Kind of test: NMR titration. Conditions: phospho-S3 of peptide.
Test [2] addresses pCdc25C (Homo sapiens). Kind of test: ITC. Conditions: phospho-T5 of peptide (pT48).

B1: Pin1 (WW domain site, full-length Pin1) WW, Q13526 (peptide)
chain: ADEEKLPPGWEKRMSRSSGRVYYFNHITNASQWERPSGNSS
B1: the Kd in the test with pCdc25C (Homo sapiens) [1] came out at 6 µM; with trans-locked inhibitor, 53 µM; in the test with FFpSPR it was 43 µM.

B2: Pin1 WW domain (isolated) WW, Q13526 (peptide)
chain: B1 chain
Molecule B2 yielded a Kd in the test with pCdc25C (Homo sapiens) [2] of 13 µM.
